Molecular target: Human BCMA-rFc (BCMA Protein aa 1-54, Human, Recombinant (ECD, rabbit Fc Tag), cat. no. 10620-H15H, Sino Biological) (human) (UniProt Q02223)
Assay: SPR, 200 nM hCD16a over immobilised hBCMA-rFc without engager (background control)

| Substance | response signal |
| --- | --- |
| hCD16a F158 (Cat. no. CDA-H5220, Acro Biosystems) (from UniProt P08637 17-208) (receptor) | < 10 RU |
| hCD16a V158 (Cat. no. CD8-H52H4, Acro Biosystems) (from UniProt P08637 17-208) (receptor) | < 10 RU |

Source: patent US20250333445A1, “NOVEL POLYPEPTIDES” (Oncopeptides Innovation 1 AB, priority 2022, published 2025)
